Experimental data reported in US20230303698A1 (HARBOUR BIOMED SHANGHAI, published 2023).

Tests used:
human PSMA = target: T1, human PSMA (human, UniProt Q04609 1-750); experiment: flow cytometry, LNCaP cells highly expressing human PSMA
T1 construct: whole, on cells; On LNCaP cells highly expressing human PSMA (Nanjing Cobioer, CBP60364); also called FOLH1; glutamate carboxypeptidase 2

human PD-L1 = target: T2, human PD-L1 (human, UniProt Q9NZQ7 19-290); experiment: flow cytometry, CHO-K1/hPD-L1 cells
T2 construct: whole, on cells; Expressed on CHO-K1/hPD-L1 cells (GenScript, M00543); also called CD274; B7-H1
T2 sequence (Q9NZQ7 19-290): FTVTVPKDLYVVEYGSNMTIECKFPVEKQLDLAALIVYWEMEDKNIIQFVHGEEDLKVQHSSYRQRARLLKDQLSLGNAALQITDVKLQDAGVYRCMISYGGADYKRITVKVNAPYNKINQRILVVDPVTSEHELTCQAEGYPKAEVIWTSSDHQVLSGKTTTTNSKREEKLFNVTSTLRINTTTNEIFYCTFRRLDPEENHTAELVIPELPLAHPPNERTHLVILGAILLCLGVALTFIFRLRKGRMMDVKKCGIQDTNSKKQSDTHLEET

human 4-1BB = target: T3, human 4-1BB (human, UniProt Q07011 24-255); experiment: flow cytometry, CHO-K1/hu 4-1BB cells
T3 construct: whole, on cells; Expressed on CHO-K1/hu 4-1BB cells (GenScript, M00538); also called CD137; TNFRSF9
T3 sequence (Q07011 24-255): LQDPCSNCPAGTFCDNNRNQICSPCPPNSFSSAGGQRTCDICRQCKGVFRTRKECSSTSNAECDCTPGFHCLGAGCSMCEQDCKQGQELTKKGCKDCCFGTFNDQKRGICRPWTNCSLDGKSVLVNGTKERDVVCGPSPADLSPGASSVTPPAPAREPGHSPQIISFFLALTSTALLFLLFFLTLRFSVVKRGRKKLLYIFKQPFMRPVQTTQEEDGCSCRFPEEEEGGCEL

T1 sequence (Q04609 whole entry): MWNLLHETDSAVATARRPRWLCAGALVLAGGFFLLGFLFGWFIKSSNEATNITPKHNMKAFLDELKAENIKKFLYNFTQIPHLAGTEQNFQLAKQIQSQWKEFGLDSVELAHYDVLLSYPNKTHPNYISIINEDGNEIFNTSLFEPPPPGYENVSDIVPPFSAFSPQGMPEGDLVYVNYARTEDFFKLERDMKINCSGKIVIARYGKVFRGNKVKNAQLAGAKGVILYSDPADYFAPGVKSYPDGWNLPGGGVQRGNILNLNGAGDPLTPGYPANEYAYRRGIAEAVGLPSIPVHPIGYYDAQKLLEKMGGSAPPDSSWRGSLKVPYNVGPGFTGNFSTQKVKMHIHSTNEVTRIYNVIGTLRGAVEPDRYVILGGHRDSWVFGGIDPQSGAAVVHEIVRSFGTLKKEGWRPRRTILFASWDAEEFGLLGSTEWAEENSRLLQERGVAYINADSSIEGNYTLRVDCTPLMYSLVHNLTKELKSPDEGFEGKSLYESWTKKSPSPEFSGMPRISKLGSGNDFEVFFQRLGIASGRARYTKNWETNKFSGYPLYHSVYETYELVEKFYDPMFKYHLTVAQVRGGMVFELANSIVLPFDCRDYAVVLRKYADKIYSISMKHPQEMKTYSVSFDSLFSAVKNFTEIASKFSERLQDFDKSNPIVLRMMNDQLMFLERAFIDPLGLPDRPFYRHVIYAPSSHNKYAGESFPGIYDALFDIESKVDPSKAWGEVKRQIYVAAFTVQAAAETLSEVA

B1: PR001331, anti-PSMA monoclonal antibody 2E8A1B1 hIgG1 (antibody, V domains shown)
VH: QVQLVESGGGVVQPGRSLRLSCSASGFTFINYGMNWVRQAPGKGLEWVAVIWYDGSNKYYADSVRGRFTISRDNSKNTLYLQMNSLRAEDTAVYYCARGPGYGGHSDAFDIWGQGTMVTVSS
VL: DIQMTQSPSSLSASIGDRVTITCRASQSINSYLNWYQQKPGKAPKLLIYTASSLLSGVPSRFSASGSWTDFSLTISSLQPEDFATYYCQQSFSTPYTFGQGTNLEIKR
notes: Parent monoclonal antibody of the PSMA end; hIgG1
B1: binds (human PSMA).

B2: PR004270 (bispecific antibody, human IgG1)
chain 1: EVQLVESGGGLVQPGGSLRLSCAASGFTFSSYWMSWVRQAPGKGLEWVANIKQEGSEKYYVDSVKGRFTISRDNAKNSLYLQMNSLRAEDTAVYYCARDRAVAGAFDIWGQGTMVTVSSASTKGPSVFPLAPSSKSTSGGTAALGCLVKDYFPEPVTVSWNSGALTSGVHTFPAVLQSSGLYSLSSVVTVPSSSLGTQTYICNVNHKPSNTKVDKKVEPKSC
chain 2: not shown
notes: Structure 3, Fab(CL)-VH-Fc (Fab-HCAb) tetravalent symmetric; PD-L1 Fab from PR000265, 4-1BB VH from PR001760; L1 H1_15, L2 human IgG1 hinge (C220S); human IgG1 (LALA); also called PD-L1×4-1BB bispecific antibody molecule with the Fab-HCAb symmetric structure
B2: binds (human PD-L1).

B3: PR007164 (bispecific antibody, human IgG1)
chain 1: EVQLVESGGGLVQPGGSLRLSCAASGFTFSSYWMSWVRQAPGKGLEWVANIKQEGSEKYYVDSVKGRFTISRDNAKNSLYLQMNSLRAEDTAVYYCARDRAVAGAFDIWGQGTMVTVSSASTKGPSVFPLAPSSKSTSGGTAALGCLVKDYFPEPVTVSWNSGALTSGVHTFPAVLQSSGLYSLSSVVTVPSSSLGTQTYICNVNHKPSNTKVDKKVEPKSC
chain 2: not shown
notes: Structure 3, Fab(CL)-VH-Fc (Fab-HCAb); PD-L1 Fab from PR000265, 4-1BB VH from PR001760; no first linker, second linker human IgG1 hinge (C220S); human IgG1 (LALA); also called PD-L1×4-1BB bispecific antibody molecule, structure (3)
B3: binds (human PD-L1).

B4: PR000265, anti-PD-L1 91G3H5H3(D54E), hIgG1(N297A) (antibody, V domains shown)
VH: EVQLVESGGGLVQPGGSLRLSCAASGFTFSSYWMSWVRQAPGKGLEWVANIKQEGSEKYYVDSVKGRFTISRDNAKNSLYLQMNSLRAEDTAVYYCARDRAVAGAFDIWGQGTMVTVSS
VL: DIQMTQSPSTLSASVGDRVTVTCRASQSIYIWLAWYQQKPGKAPNLLIYKASSLETGVPSRFSGSGSGTEFTLTISSLQPDDFATYYCQQYYGSSRTFGQGTKVEIKR
notes: Parent monoclonal antibody of the PD-L1 end
B4: binds (human PD-L1).

B5: PR003563 (bispecific antibody, human IgG1, kappa, L234A L235A)
light: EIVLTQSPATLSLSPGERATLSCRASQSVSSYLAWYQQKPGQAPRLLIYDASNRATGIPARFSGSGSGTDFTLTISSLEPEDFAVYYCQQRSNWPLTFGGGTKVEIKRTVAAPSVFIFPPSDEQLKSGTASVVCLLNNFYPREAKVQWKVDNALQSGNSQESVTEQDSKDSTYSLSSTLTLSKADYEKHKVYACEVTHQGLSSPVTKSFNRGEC
heavy: EVQLLESGGGLVQPGGSLRLSCAASGFTFSSFVMSWVRQAPGKGLEWVSTISGSGRSTYYADSVKGRFTISRDNSKNTLHLQMNSLRAEDTAVYYCAKDAAAAGTKFDYWGQGTLVTVSSASTKGPSVFPLAPSSKSTSGGTAALGCLVKDYFPEPVTVSWNSGALTSGVHTFPAVLQSSGLYSLSSVVTVPSSSLGTQTYICNVNHKPSNTKVDKKVEPKSCDKTHTCPPCPAPEAAGGPSVFLFPPKPKDTLMISRTPEVTCVVVDVSHEDPEVKFNWYVDGVEVHNAKTKPREEQYNSTYRVVSVLTVLHQDWLNGKEYKCKVSNKALGAPIEKTISKAKGQPREPQVYTLPPSREEMTKNQVSLTCLVKGFYPSDIAVEWESNGQPENNYKTTPPVLDSDGSFFLYSKLTVDKSRWQQGNVFSCSVMHEALHNHYTQKSLSLSPGEPKSSDKTHTPPPPPRTEVQLVESGGGVVQPGGSLRLSCAASGFTFSNYAMTWVRQAPEKGLEWVSSISGSGVSTYYADSVKGRFTISRDNSKNTLYLQMTRLTAEDTAVYFCAKEGSSETDDHYYNVDVWGQGTTVTVSS
notes: Structure 1, IgG-VH; CLDN18.2 Fab from PR002726, 4-1BB VH from PR001760; linker H1_15-RT; human IgG1 (AAG); also called CLDN18.2×4-1BB bispecific antibody molecule
B5: binds (human 4-1BB).

B6: PR003564 (bispecific antibody, human IgG1, kappa, L234A L235A)
light: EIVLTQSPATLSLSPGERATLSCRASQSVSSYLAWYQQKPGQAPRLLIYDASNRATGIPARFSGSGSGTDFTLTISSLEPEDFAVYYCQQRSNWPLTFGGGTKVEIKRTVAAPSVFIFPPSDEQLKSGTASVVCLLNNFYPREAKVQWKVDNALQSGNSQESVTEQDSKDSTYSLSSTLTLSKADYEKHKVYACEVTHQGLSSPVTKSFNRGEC
heavy: EVQLLESGGGLVQPGGSLRLSCAASGFTFSSFVMSWVRQAPGKGLEWVSTISGSGRSTYYADSVKGRFTISRDNSKNTLHLQMNSLRAEDTAVYYCAKDAAAAGTKFDYWGQGTLVTVSSASTKGPSVFPLAPSSKSTSGGTAALGCLVKDYFPEPVTVSWNSGALTSGVHTFPAVLQSSGLYSLSSVVTVPSSSLGTQTYICNVNHKPSNTKVDKKVEPKSCDKTHTCPPCPAPEAAGGPSVFLFPPKPKDTLMISRTPEVTCVVVDVSHEDPEVKFNWYVDGVEVHNAKTKPREEQYNSTYRVVSVLTVLHQDWLNGKEYKCKVSNKALGAPIEKTISKAKGQPREPQVYTLPPSREEMTKNQVSLTCLVKGFYPSDIAVEWESNGQPENNYKTTPPVLDSDGSFFLYSKLTVDKSRWQQGNVFSCSVMHEALHNHYTQKSLSLSPGEPKSSDKTHTPPPPPRTEVQLLESGGGLVQPGGSLRLSCAASGFIFSNFAMTWVRQPPEKGLKWVSSINGSGFNTYYTDSVKGRFTISRDNSRNTLYLQMNRLTAEDTAVYFCAKEGSSETDDHYYNVDVWGQGTTVTVSS
notes: Structure 1, IgG-VH; CLDN18.2 Fab from PR002726, 4-1BB VH from PR001836; linker H1_15-RT; human IgG1 (AAG); also called CLDN18.2×4-1BB bispecific antibody molecule
B6: binds (human 4-1BB).
